Test results reported in US20060110799A1, “Mitogen-activated protein kinase kinase MEK6 and methods of use thereof” (Signal Pharmaceuticals, Inc., priority 1995, published 2006).
Like-named read-outs stand apart in the source and are kept apart here. Blank lines part the entries; values can stand above or below the molecule they belong to.

Experiments:
MEK6 = test: immune complex kinase assay with GST-p38 substrate, HeLa cells transfected with epitope-tagged MEK6; type: cell-based, human; conditions: for stimulation of MEK6 (summary of Example 4): summary statement for transfected HeLa and COS cells
Experimental: Next, we examined whether MEK6 can activate p38 in vivo. An expression vector encoding epitope-tagged MEK6 (3xHA-MEK6-SRα3) was constructed by replacing serine in position 2 of MEK6 with alanine, adding sequence encoding three copies of a 10 amino acid hemagglutinin (HA) epitope to the N-terminus of MEK6 and ligating the resulting cDNA into SRα3. HeLa cells, cultured in Dulbecco's modified Eagle medium supplemented with 10% fetal calf serum, 500 mg/l L-glutamine, and antibiotics, were transiently transfected with 3xHA-MEK6 using calcium phosphate-mediated DNA precipitation (Graham and van der Eb, Virology 52:456-467 (1973)). Twenty-four hours later cells were stimulated with anisomycin (50 ng/mL) or UV (254 nm; 120 J/m^2) for 0-120 minutes. Cell lysates were prepared by solubilization in lysis buffer as described (Derijard et al., Cell 76:1025-1037 (1994)), and protein concentration of lysates was determined by Bradford assay (Bradford, Ann. Biochem. 72:248-254(1976)).
In an initial experiment we investigated the time course of MEK6 activation by anisomycin and UV treatment of transfected cells. Cell lysates were used in an immune complex kinase assay with GST-p38 substrate, performed as described above except that 30 μg cell lysate was immunoprecipitated for 2 hours with the anti-HA antibody 12CA5 (Boehringer-Mannheim Corp., Indianapolis, Ind.) and then incubated with 1 μg of recombinant substrate. Reactions were separated by SDS-PAGE and quantitated with a phosphorimager and ImageQuant software. The relative level of MEK6 activity in untreated cells was arbitrarily assigned 1.
To investigate the pattern of regulation of MEK6, cells were transiently transfected with 3xHA-MEK6 (as described in Example 3) and treated with various stimulators of the MAPK pathway.
MEKK has been described as a MAPKKK leading to the phosphorylation and activation of JNKK (Lin et al., Science 268:286-290 (1995); Minden et al., Science 266:1719-1722 (1994); Yan et al., Nature 372:798-800 (1994)). In an initial experiment, HeLa (FIG. 7A) or COS (FIG. 7B) cells were transiently transfected with epitope-tagged MEK6 (lanes 1 to 12) or the empty expression vector SRα3 (lanes 13 to 16) and treated for 45 min with IL-1β (10 ng/ml), TNF-α (10 ng/ml), EGF (50 ng/ml), NGF (50 ng/ml), PMA (50 ng/ml), Anisomycin (50 ng/ml), Cycloheximide (CX, 50 ng/ml), Arsenite (200 μM), NaCl (200 μM), UV (254 nm; 120 J/m^2) or cotransfected with 1000 ng CMV5-MEKK as indicated. Cell lysates were used in an immune complex kinase assay with GST-p38 substrate as described in Example 3. MEK6 activity was quantitated with a phosphorimager and ImageQuant software.

MEK6 / p38 / ATF2 = test: coupled immune complex kinase assay, MEK6 from anisomycin-treated HeLa cells, recombinant p38 and ATF2; type: cell-based, human; conditions: anisomycin 45 minutes, 50 ng/mL, FIG. 6
Experimental: To determine whether the increase in p38 phosphorylation by activated MEK6 augments p38 kinase activity a coupled immune complex kinase assay was performed. Epitope-tagged MEK6 was isolated from anisomycin-treated HeLa cells (45 minutes; 50 ng/mL) and subjected to two subsequent kinase reactions as described above using recombinant p38, ATF2 and GST alone. […] Similar results have been found with MEK6 activated by UV treatment of cells (data not shown). […] This phosphorylation event was slightly augmented by anisomycin in the presence of MEK6 (FIG. 6, compare lanes 3 and 4 with lanes 11 and 12). This protein was not observed in in vitro kinase assays, and therefore is most likely a contamination of the immunoprecipitation.

GST-JNK2 = target: T1, GST-JNK2 (Homo sapiens, UniProt P45984); test: in vitro kinase assay with bacterially expressed MAPK substrate; type: biochemical; conditions: 0.5 μg recombinant kinase, 1 μg substrate, 50 nM [γ-32P]ATP
T1 construct: ligating the respective cDNA fragments encoding amino acid 1 through the stop codon into pGEX-KG; made in house; host or cells: bacteria (pGEX-KG)
Experimental: (§1) A MEK6 kinase assay may be performed substantially as described in Derijard et al., Cell 76:1025-1037 (1994) and Lin et al., Science 268:286-290 (1995), with minor modifications. Briefly, a polypeptide variant of MEK6 may be incubated with p38 and [γ-^32P]ATP in a suitable buffer (such as 20 mM HEPES (pH 7.6), 5 mM MnCl2, 10 mM MgCl2, 1 mM dithiothreitol) for 30 minutes at 30° C. In general, approximately 0.5 μg of the variant and 1 μg recombinant p38, with 50 nM [γ-^32P]ATP, is sufficient. Proteins may then be separated by SDS-PAGE on 10% gels and subjected to autoradiography. Incorporation of [^32P]phosphate into p38 may be quantitated using techniques well known to those of ordinary skill in the art, such as with a phosphorimager. To evaluate the substrate specificity of polypeptide variants, a kinase assay may generally be performed as described above except that other MAPK substrates (i.e., JNK2 and/or ERK) are substituted for the p38.
(§2) cDNAs encoding MEK6 and MKK3 were subcloned into a bacterial GST-fusion protein expression vector. GST-MEK6 was constructed by ligating a 1.3 kb DNA fragment encoding amino acid 1 through the stop codon of MEK6 with a serine to alanine substitution of amino acid 2 into pGEX-KG (Guan and Dixon, Ann. Biochem. 192:262-267 (1991)). Similarly, GST-MKK3, GST-p38 and GST-JNK2 were constructed by ligating the respective cDNA fragments encoding amino acid 1 through the stop codon into pGEX-KG. Human p38 cDNA (Genbank accession number U10871) was cloned by PCR amplification of a Jurkat cDNA library with primers against the 5′ end (5′-[…]-3′) (SEQ ID NO:5) and 3′ end (5′-[…]-3′) (SEQ ID NO:6) of the published human p38 sequence. Each strand of the PCR fragment was sequenced several times with an ABI 373 Automated Sequencer. His-ERK1[K52R] was prepared as described previously (Robbins et al., J. Biol. Chem. 268:5097-5106 (1993)).
(§3) We investigated the substrate specificity of MEK6 in an in vitro kinase assay with bacterially expressed MAPK substrates (GST-JNK2, GST-p38 and His-ERK1[K52R]). The assays were performed as previously described (Derijard et al., Cell 76:1025-1037 (1994); Lin et al., Science 268:286-290 (1995)) with minor modifications. 0.5 μg recombinant kinase and 1 μg recombinant substrate were used, and the concentration of [γ-^32P]ATP was 50 nM. Phosphorylated proteins were separated by SDS-PAGE on 10% gels and then subjected to autoradiography. Incorporation of [^32P]phosphate was quantitated with a phosphorimager and ImageQuant software (Molecular Dynamics, Inc., Sunnyvale, Calif.).

GST-p38 [1] = target: T2, GST-p38 (Homo sapiens, UniProt Q16539, S2A); test: as above; type: biochemical; conditions: 0.5 μg recombinant kinase, 1 μg substrate, 50 nM [γ-32P]ATP
T2 construct: ligating the respective cDNA fragments encoding amino acid 1 through the stop codon into pGEX-KG; made in house; host or cells: bacteria (pGEX-KG)
T2 sequence (Q16539 whole entry S2A, the tested form may be a part): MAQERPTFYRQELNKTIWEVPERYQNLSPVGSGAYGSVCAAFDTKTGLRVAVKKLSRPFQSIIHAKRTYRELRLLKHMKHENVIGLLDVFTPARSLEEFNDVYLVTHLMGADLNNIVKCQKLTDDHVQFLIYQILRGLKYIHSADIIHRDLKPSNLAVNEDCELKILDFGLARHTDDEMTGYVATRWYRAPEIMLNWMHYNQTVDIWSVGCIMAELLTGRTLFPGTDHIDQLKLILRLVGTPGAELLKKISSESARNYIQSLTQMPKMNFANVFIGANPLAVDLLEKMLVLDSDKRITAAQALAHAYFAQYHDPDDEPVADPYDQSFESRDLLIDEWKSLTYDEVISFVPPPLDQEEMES
Experimental: as §1, §2, §3

His-ERK1[K52R] = test: as above; type: biochemical; conditions: 0.5 μg recombinant kinase, 1 μg substrate, 50 nM [γ-32P]ATP
Experimental: as §1, §2, §3

GST-p38 [2] = target: T3, GST-p38 (Homo sapiens, UniProt P52564, S2A); test: as above; type: biochemical; conditions: in vitro kinase assay, compared to MKK3
T3 construct: ligating the respective cDNA fragments encoding amino acid 1 through the stop codon into pGEX-KG; made in house; host or cells: bacteria (pGEX-KG)
T3 sequence (P52564 1-334 S2A): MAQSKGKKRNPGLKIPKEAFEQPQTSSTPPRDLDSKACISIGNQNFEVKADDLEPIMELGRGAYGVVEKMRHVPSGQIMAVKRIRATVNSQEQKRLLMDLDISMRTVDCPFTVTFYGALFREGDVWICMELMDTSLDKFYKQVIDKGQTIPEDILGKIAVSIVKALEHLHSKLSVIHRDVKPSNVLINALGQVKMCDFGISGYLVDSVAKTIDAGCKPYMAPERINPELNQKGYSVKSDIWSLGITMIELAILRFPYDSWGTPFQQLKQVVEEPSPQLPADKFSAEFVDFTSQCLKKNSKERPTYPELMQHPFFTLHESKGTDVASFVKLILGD
Experimental: as §1, §2, §3

GST-p38 / GST-ATF2 = test: coupled in vitro kinase assay (p38, GST-ATF2); type: biochemical, human
Experimental: To determine whether p38 phosphorylation results in activation, a coupled in vitro kinase assay may be performed using a substrate for p38, such as ATF2, with or without an epitope tag. ATF2 for use in such an assay may be prepared as described in Gupta et al., Science 257:389-393 (1995). Briefly, following phosphorylation of p38 as described above, isolation of the protein by binding to GSH-sepharose and washing with 20 mM HEPES (pH 7.6), 20 mM MgCl2, the p38 (0.1-10 μg) may be incubated with ATF2 (0.1-10 μg) and [γ-^32P]ATP (10-500 nM) in a buffer containing 20 mM HEPES (pH 7.6), 20 mM MgCl2. It should be noted that alternative buffer may be used and that buffer composition can vary without significant effects on kinase activity. Reactions may be separated by SDS-PAGE, visualized by autoradiography and quantitated using any of a variety of known techniques. Activated p38 will be capable of phosphorylating ATF2 at a level of at least 5% above background using this assay.
To determine whether phosphorylation of p38 is an activating event we analyzed the phosphorylation of recombinant ATF2 (a substrate for p38) in a coupled in vitro kinase assay. […] Reactions were separated by SDS-PAGE and visualized by autoradiography.

[3] = system: GST-JNK2 / GST-cJun(1-79); test: coupled in vitro kinase assay (JNK2, GST-cJun(1-79)); type: biochemical; conditions: FIG. 3B lanes 1 to 3
[4] = HeLa cells, 45 min, anisomycin 50 ng/ml, NaCl 200 μM, IL-1β 10 ng/ml, EGF 50 ng/ml, NGF 50 ng/ml, CMV5-MEKK 1000 ng cotransfected, FIG. 7A
[5] = HeLa cells, anisomycin 50 ng/mL, FIG. 4

Molecule: [Cl-].[Na+] [NaCl]
induction of MEK6 kinase activity (MEK6): strongest inducers

Molecule: COc1ccc(C[C@H]2NC[C@H](O)[C@H]2OC(C)=O)cc1 [anisomycin]
phosphorylation of ATF2 after anisomycin treatment (MEK6 / p38 / ATF2): increased phosphorylation of ATF2 only when MEK6 and p38 were present | induction of MEK6 kinase activity (MEK6; [4]): strongest inducers | time at which MEK6 activation was first observed after treatment (MEK6; [5]): 10 min | time of peak MEK6 activation after treatment (MEK6; [5]): 40 min | stimulation of MEK6 (summary of Example 4) (MEK6): strongly activated

Molecule: EGF: strong inducer of the ERK pathway
induction of MEK6 kinase activity (MEK6; [4]): did not activate MEK6 | stimulation of MEK6 (summary of Example 4) (MEK6): did not stimulate MEK6

Molecule: NGF: strong inducer of the ERK pathway
induction of MEK6 kinase activity (MEK6; [4]): did not activate MEK6 | stimulation of MEK6 (summary of Example 4) (MEK6): did not stimulate MEK6

Molecule: C[C@@H]1C[C@@H]([C@H](O)CC2CC(=O)NC(=O)C2)C(=O)[C@@H](C)C1 [cycloheximide]
stimulation of MEK6 (summary of Example 4) (MEK6): did not significantly activate MEK6

Molecule: IL-1β: cytokine stimulator
induction of MEK6 kinase activity (MEK6; [4]): weak induction

phosphorylation of JNK2 by MEK6 (GST-JNK2): none of the other substrates | phosphorylation of p38 by MEK6 (GST-p38 [1]): efficiently phosphorylated p38 | phosphorylation of ERK1[K52R] by MEK6 (His-ERK1[K52R]): none of the other substrates | autophosphorylation of MEK6 (GST-p38 [2]): very low compared to MKK3 | phosphorylation of ATF2 by p38 activated by MEK6 (GST-p38 / GST-ATF2; FIG. 3B lane 5): strongly phosphorylated | direct phosphorylation of ATF2 by MEK6 (GST-p38 / GST-ATF2; without p38): not directly phosphorylated
B1: MEK6: human mitogen-activated protein kinase kinase, SEQ ID NO:2, 334 amino acids; used as GST fusion or HA epitope-tagged (protein)
chain: SQSKGKKRNPGLKIPKEAFEQPQTSSTPPRDLDSKACISIGNQNFEVKADDLEPIMELGRGAYGVVEKMRHVPSGQIMAVKRIRATVNSQEQKRLLMDLDISMRTVDCPFTVTFYGALFREGDVWICMELMDTSLDKFYKQVIDKGQTIPEDILGKIAVSIVKALEHLHSKLSVIHRDVKPSNVLINALGQVKMCDFGISGYLVDSVAKTIDAGCKPYMAPERINPELNQKGYSVKSDIWSLGITMIELAILRFPYDSWGTPFQQLKQVVEEPSPQLPADKFSAEFVDFTSQCLKKNSKERPTYPELMQHPFFTLHESKGTDVASFVKLILGD
modifications: GST fusion or HA tag; homo sapien
phosphorylation of Jun, directly or in combination with JNK2 [3]: did not cause increased phosphorylation of Jun
